From article doi:10.1101/2023.03.10.531533 (bioRxiv, 2023)

Columns and labels:
[1] = target: HR2 protein, residues H1159-K1211 of the SARS-CoV-2 spike (SARS-CoV-2, UniProt P0DTC2); assay: crystal structure
[2] = target: mouse Fc-tagged SARS-CoV-2 RBD (SARS-CoV-2, Wuhan-Hu-1 (assumed from …, UniProt P0DTC2)); assay: ELISA
[3] = target: recombinant SARS-CoV-1 spike protein (SARS-CoV-1, isolate , UniProt P59594, stabilised); assay: ELISA

B1: VHH R3DC23 (VHH)
VHH: QVQLQESGGGLVQAGDSLTLSCAVSGRIFSTYTMGWFRQAPGKEREFVAAVRWGAGTIYYADSMKGRFTISRDSAKNTVDLQMNSTKPEDTAVYYCGAAYVSKANYGSLWYQDSRRYDYWGQGTQVTVSS
binding result [1]: binds
binding result [2]: no binding
binding result [3]: binds
